Series [1] concerns the target T1, Nab3-RRM(419) (Saccharomyces cerevisiae, UniProt P38996 329-419).
T1 sequence: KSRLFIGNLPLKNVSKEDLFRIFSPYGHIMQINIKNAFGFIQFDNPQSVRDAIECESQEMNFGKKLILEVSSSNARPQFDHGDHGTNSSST
Briefly: fluorescence anisotropy.

Series [2] has as its target T1, Nab3-RRM(419). Nature of the series: fluorescence anisotropy. The source holds these as a separate data set. (In fluorescence polarisation assays a small probe gives low polarisation when free and higher when bound to something large.)

Read-outs that look alike come from different tables or passages of the source.

On to UUCUUAUUUUUA (ssRNA) [FAM-snR47one], for which the binding result in the series with Nab3-RRM(419) [1] was “binds”. Consider UUCUUAUUCUUA (ssRNA) [FAM-wtsnR47], for which the binding result with Nab3-RRM(419) [2] was “binds”.

(Values after PMC3017603.)
